Columns and labels:
[1] = molecular target: T1, SARS-CoV-2 S1+S2 (40589-V08B1, Sino Biological) (SARS-CoV-2, UniProt P0DTC2 16-1213); test: ELISA on coated protein, anti-human IgG-HRP; AUC of the OD
[2] = molecular target: T2, SARS-CoV-2 S1 (40591-V08H3, Sino Biological) (SARS-CoV-2, UniProt P0DTC2 16-685); test: as above
T2 construct: domain: S1

[3] = molecular target: T3, SARS-CoV-2 S2 (40590-V08B, Sino Biological) (SARS-CoV-2, UniProt P0DTC2 686-1213); test: as above
T3 construct: domain: S2

[4] = molecular target: T1, SARS-CoV-2 S1+S2 (40589-V08B1, Sino …); test: ELISA, hmAb at 10 and 1 ug/ml in duplicate; AUC
[5] = molecular target: T2, SARS-CoV-2 S1 (40591-V08H3, Sino …); test: ELISA, hmAb at 10 and 1 ug/ml in duplicate; AUC
[6] = molecular target: T3, SARS-CoV-2 S2 (40590-V08B, Sino …); test: ELISA, hmAb at 10 and 1 ug/ml in duplicate; AUC
[7] = molecular target: Spike of live SARS-CoV-2 WT virus (SARS-CoV-2, UniProt P0DTC2 14-1273); test: cell-based or functional assay
[8] = molecular target: T4, Spike of MERS-CoV on infected Vero E6 cells and live virus (MERS-CoV, UniProt K9N5Q8 18-1353); test: immunofluorescence on infected Vero E6 cells, 1 µg/ml
T4 sequence: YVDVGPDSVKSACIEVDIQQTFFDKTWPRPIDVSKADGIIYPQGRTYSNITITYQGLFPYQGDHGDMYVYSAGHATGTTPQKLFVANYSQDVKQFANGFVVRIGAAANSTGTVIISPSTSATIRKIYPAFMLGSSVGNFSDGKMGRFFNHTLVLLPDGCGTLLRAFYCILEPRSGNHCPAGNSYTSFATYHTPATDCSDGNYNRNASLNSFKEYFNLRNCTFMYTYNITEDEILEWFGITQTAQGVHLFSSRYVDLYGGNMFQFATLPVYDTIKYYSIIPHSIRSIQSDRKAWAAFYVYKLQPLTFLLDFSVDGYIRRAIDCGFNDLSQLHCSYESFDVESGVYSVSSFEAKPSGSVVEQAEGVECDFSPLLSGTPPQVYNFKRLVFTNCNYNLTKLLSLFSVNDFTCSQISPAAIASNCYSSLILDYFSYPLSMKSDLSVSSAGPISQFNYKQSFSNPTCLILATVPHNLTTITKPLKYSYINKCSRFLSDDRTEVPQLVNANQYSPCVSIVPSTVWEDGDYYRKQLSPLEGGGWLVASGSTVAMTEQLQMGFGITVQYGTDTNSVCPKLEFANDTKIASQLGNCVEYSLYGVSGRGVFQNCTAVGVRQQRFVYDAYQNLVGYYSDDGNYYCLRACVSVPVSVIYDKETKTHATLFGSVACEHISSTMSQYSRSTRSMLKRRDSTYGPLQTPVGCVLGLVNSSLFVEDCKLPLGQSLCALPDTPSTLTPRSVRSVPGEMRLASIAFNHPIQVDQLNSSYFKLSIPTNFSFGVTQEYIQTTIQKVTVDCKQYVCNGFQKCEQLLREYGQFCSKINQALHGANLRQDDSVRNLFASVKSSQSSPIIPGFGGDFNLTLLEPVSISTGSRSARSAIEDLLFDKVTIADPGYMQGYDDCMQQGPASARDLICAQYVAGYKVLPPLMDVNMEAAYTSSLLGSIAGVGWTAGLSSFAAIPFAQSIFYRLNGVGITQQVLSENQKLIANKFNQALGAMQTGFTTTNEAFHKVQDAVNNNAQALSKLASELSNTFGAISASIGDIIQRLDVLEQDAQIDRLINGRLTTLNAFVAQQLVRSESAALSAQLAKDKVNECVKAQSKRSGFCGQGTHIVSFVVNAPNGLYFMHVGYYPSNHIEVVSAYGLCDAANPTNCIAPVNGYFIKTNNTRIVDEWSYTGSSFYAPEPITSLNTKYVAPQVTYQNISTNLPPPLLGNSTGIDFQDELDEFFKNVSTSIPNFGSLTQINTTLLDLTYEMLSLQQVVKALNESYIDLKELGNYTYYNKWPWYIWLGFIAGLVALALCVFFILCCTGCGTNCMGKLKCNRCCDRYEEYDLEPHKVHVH

[9] = molecular target: Spike of SARS-CoV (Urbani) on infected Vero E6 cells and live virus (SARS-CoV, UniProt P59594 14-1255); test: as above

Row | Binder | Binding AUC [1] | Binding AUC [2] | Binding AUC [3] | Binding AUC [4] | Binding AUC [5] | binding result [5] | Binding AUC [6] | Neutralization IC50 (µg/ml), Live Virus WT [7] [µg/mL] | binding result [8] | binding result [9] | binding result [2]
1 | 1250E10 (antibody, V domains shown, Recombinant human IgG1) VH: EVQLVQSGAEVKKPGASVKFSCKASGFRVDGSYMHWVRQAPRGGLEWMGLINPSGSGTAYAQIFQGRVTLTRDTSTSTLYMELGSLGSEDTAMYYCARMDRSGSYDLWGQGTLVIVSS VL: DIVLTQSPGNLSLSPGERATLSCRASESIRSAYIAWYQQKPGQAPRLLMRGASVRAAGIPDRFSGSGSGTDYALTISRLEPEDFAVYYCQHFASSPPRYTFGQGTKLEIK | 26 | 2.9 | 27.9 | 26 | 2.9 | no binding (tested: 10 ug/ml) | 27.9 | > 50 |  |  | 
2 | 1242F4 (antibody, V domains shown, Recombinant human IgG1) VH: EVQLVQSGAEVKKPGTSVKVSCKASGNTVADYYMHWVRQAPRQGLEWVGLINPSGSGTAYAQNFQGRVTLTRDTSTSTLYMELGSLGSEDTAIYYCARMDSSGTYDVWGQGTLVTVSS VL: EIVLTQSPGTLSLSPGERATLSCRASQSIRSGYLAWYQQKPGQAPRLLIRGASVKATGIPDRFSGSGSGTDFTLTISRLEPEDFVVYYCQHFASSPPRYTFGQGTKLEIK | 27 | 1.3 | 28.5 | 27 | 1.3 | no binding (tested: 10 ug/ml) | 28.5 | 36.5 | binds | binds | 
3 | 1242G6 (antibody, V domains shown, Recombinant human IgG1) VH: QVQLVQSGGGVVQPGTSVRLSCAASGFTFSDHGMHWVRQAPGKGLEWVAVISFEGRNKFFADSVKGRSTISRDNSKNTVSMQVDNVRPEDTAVYYCAREHFDGSGSDYIGTRFFDYWGRGALVTVSS VL: DIQLTQSPSFLSASVGDRVTITCRASQGISHYLTWYQQKPGKAPKLLIYRTSTLQSGVPSRFSGSGSGTVFTLTISSLQPEDLATYYCQHLDNFPTITFGQGTRLDLK | 24.3 | 3.8 | 22.6 | 24.3 | 3.8 |  | 22.6 | > 50 |  |  | no binding
4 | 1242F11 (antibody, V domains shown) VH: QVQLVQSGGGLVQPGGSLRLSCAASGFTFSSYWMTWVRQAPGKGLEWVANIKQDGREIYYVDSVKGRFTLSRDNAKNSLYLQMNSLRAEDTAVFYCARIRVFVSADSEGYHYYYGLDVWGQGTTVTVSP VL: not shown | 24.1 | 1.9 |  |  |  |  |  |  |  |  | 
5 | 1246C2 (antibody, V domains shown) VH: QVQLVQSGGGLVKPGGSLRLSCAASGFTFKTHNMIWVRQAPGKVLEWVSSISGSSSYRYYGDSMKGRLTISRDNAKNSLYLEMNSLRAEDTAVYYCARDKGVGPTMVWYFDLWGRGTLVTVSS VL: EIVLTQSPATLSLSPGDRATLSCRASQSLSISLAWYQQKPGQAPRLLIYDASIRATGVPPRFSGSGSGTDFTLTISSLEPEDFAVYYCQQWSGWPPRLTFGGGTKVEIK | 18 | 4.2 | 17.4 | 18 | 4.2 | no binding (tested: 10 ug/ml) | 17.4 | > 50 |  |  | 
6 | 1250D2 (antibody, V domains shown, Recombinant human IgG1) VH: QVQLVQSGAEVKKPGASMKVSCKASGFTFSDYYMHWVRQAPRQGLEWMGLINPSGSGTAYAQNFQGRVTLTRDTSTSTLYMEMGSLTSDDTAVYYCARMDSSGSYDHWGQGTLVTVSS VL: EIVLTQSPGTLSLSPGDRATLSCRASQTIRISYLAWYQQKPGQAPRLLVYGPSIRATGIPDRFSASGSGTDFTLTISRLEPEDFAVYYCQHYGSSPPRYTFGQGTKLEIK | 25.3 | 1.7 | 28.2 | 25.3 | 1.7 | no binding (tested: 10 ug/ml) | 28.2 | 2.36 | binds | binds | 
7 | 1246H7 (antibody, V domains shown) VH: QVQLQQSGPGLMKPSETLSLTCTVSGGSISSSSYYWGWIRQPPGKGLEWIGSIYYSGATYYNPSLKSRVTISVDTSKNQLSLKLSSVTAADTAVYYCVNRYYDYVWGSWGVDCWGQGTLVTVSS VL: QAGLTQPRSVSGSPGQSVTISCTGTSSDVGGYNYVSWYQQHPGKAPKLMIYDVNKRPSGVPDRFSGSKSGNTASLTISGLQAEDEADYFCCSYAGSYTYWVFGGGTKLTVL | 5 | 1.7 | 4.8 | 5 | 1.7 |  | 4.8 |  |  |  | no binding
8 | 1212C2 (antibody, V domains shown) VH: QVQLVQSGAEVKKPGASVKVSCKASGYIFTDYFIHWVRQAPGQGLEWMGWINPNSGGTKYAQKFQGRVTMTRDTSISTVYMELSRLRSDDTAVHYCTRDLPLRTLYDSYGFDSWGQGTLVTVSS VL: LPVLTQPASVSGSPGQSITISCTGTSSDVGSYNLVSWYQQHPGKAPKLMIYDVSKRPSGVSNRFSGSKSGNTASLTISGLQAEDEADYYCCSYAGNSIVFFGGGTKLTVL |  |  |  |  |  |  |  | 0.003 |  |  | 
9 | 1232D5 (antibody, V domains shown) VH: EVQLVESGGGVVQPGGSLRLSCAASGFTFSNYGMHWVRQAPSKGLEWVAFIRYDGTNKYYADSVKGRFTISRDNSKNTLYLQINSLRAEDTAVYYCAIIAVAGDVNPDYWGQGTLVTVSS VL: not shown | 11.7 | 1.1 |  | 11.7 | 1.1 |  |  |  |  |  | no binding
10 | 1242D11 (antibody, V domains shown) VH: QVQLVQSGGGLVQPGGSLRLSCAVSGFTFSSYWMSWVRQAPGKGLEWVANIKQDGSEKYYVDSVKGRFTISRDNAKNSLFLQMNSLRAEDTAVYYCAREAVGYYYDSRGYHYSWYFDLWGRGTLVTVSS VL: EIVLTQSPGTLSLSPGERATLSCRASQSVSSSYLVWYQQKPGQAPRLLIFGASSRATGIPDRFSGSGSGTDFTLTISSLEPEDFAVYYCQHYGSSPPMYTFGQGTKLEIK | 21.4 | 2.9 | 24.4 | 21.4 | 2.9 |  | 24.4 |  |  |  | no binding
11 | 1235C10 (antibody, V domains shown, Recombinant human IgG1) VH: EVQLVESGGGLVQPGRSLRLSCTASGFTFGDHSMSWVRQAPGKGLEWVGFIRSKAYGGTTEYAASVKGRFTISRDDSKSIAYLQMNSLKIEDTAVYYCTRGLTGLDYWGQGMLVTVSS VL: not shown | 25.2 | 0.8 | 26.9 | 25.2 | 0.8 | no binding (tested: 10 ug/ml) | 26.9 | 10.4 |  |  | 

From patent US20240270828A1 (UAB RESEARCH FOUNDATION, published 2024)
